To fix the notation:
B1: Hairpin Ribozyme (parent)
chain: GUCCUCUUUCACGUGCGCGUGAAAGAGAGAAGUGAACCAGAGAAACACACGUUGUGGUAUAUUACCUGGUA

Variants of B1 are the subject of this series. The series is described as follows: self-cleavage, relative activity (ratio to wild type); higher = more cleavage; co-transcriptional.
For the variant G13U G42A, the self-cleavage was 0.16.

With U14G A64U, the self-cleavage turned out to be 0.07.

With U14G A49G, the self-cleavage was 0.386.

For G13U U70G, the self-cleavage was determined as 0.78.

On to G13U U70C, for which the self-cleavage was 0.784.

For U14A C66U, the self-cleavage came to 0.335.

U14C C38A: the self-cleavage was 0.0751.

For the variant G13A G68U, the self-cleavage turned out to be 0.218.

As to G13A G68C, the self-cleavage was 0.248.

In the case of U14A U53A, the self-cleavage worked out at 1.12.

Turning to U14G C66G, the self-cleavage was 0.173.

Consider U14G C66U, for which the self-cleavage worked out at 0.217.

Consider G13A A31U, for which the self-cleavage was found to be 0.202.

Take G13C C16A: the self-cleavage was determined as 0.597.

For G13U A23U, the self-cleavage came to 0.709.

With G13C G27A, the self-cleavage is 0.314.

For G13U C46U, the self-cleavage worked out at 0.137.

Take G13U C46G: the self-cleavage is 0.121.

With U14C U70A, the self-cleavage came to 0.814.

For the variant U14C A71U, the self-cleavage amounted to 0.87.

As to G13C G56U, the self-cleavage stood at 0.202.

Consider G13C G56C, for which the self-cleavage amounted to 0.17.

As to U14C C66G, the self-cleavage came to 0.337.

Regarding U14C C66U, the self-cleavage was 0.408.

With U14C G42C, the self-cleavage was found to be 0.403.

Take U14C G42A: the self-cleavage amounted to 0.154.

Turning to U14C G42U, the self-cleavage came out at 0.365.

For the variant G13A A61C, the self-cleavage is 0.223.

For the variant G13A A61G, the self-cleavage was 0.196.

For the variant C12U U58A, the self-cleavage was 0.597.

On to C12U U58G, for which the self-cleavage worked out at 0.584.

Consider U14A U60G, for which the self-cleavage turned out to be 0.614.

Regarding U14C G21U, the self-cleavage is 0.702.

On to U14C U33A, for which the self-cleavage amounted to 0.0608.

Take U14C G68C: the self-cleavage is 0.212.

Take U14A G57A: the self-cleavage was 0.139.

G13C A26C: the self-cleavage was determined as 0.403.

Turning to U14G A31G, the self-cleavage came out at 0.693.

Take C12U U70C: the self-cleavage was 0.96.

Consider G13C G51A, for which the self-cleavage turned out to be 0.521.

G13U U55G: the self-cleavage turned out to be 0.124.

As for G13A G69C, the self-cleavage came to 0.275.

Take U14C A35G: the self-cleavage worked out at 0.953.

Take U14C A35U: the self-cleavage came to 0.713.

Regarding G13A A64G, the self-cleavage was 0.526.

As for U14C A49U, the self-cleavage turned out to be 0.134.

As to U14C A49C, the self-cleavage came out at 0.162.

Take G13U C66U: the self-cleavage worked out at 0.502.

In the case of U14A G69A, the self-cleavage is 0.219.

G13C A59U: the self-cleavage is 0.132.

Regarding U14A C65A, the self-cleavage worked out at 0.958.

As to U14C A43C, the self-cleavage worked out at 0.114.

For U14C A43G, the self-cleavage was 0.147.

Turning to U14C A43U, the self-cleavage amounted to 0.094.

Regarding G13C A71C, the self-cleavage was found to be 1.22.

Consider U14A A43G, for which the self-cleavage was found to be 0.147.

With U14C G17U, the self-cleavage was found to be 1.24.

U14C G17A: the self-cleavage came to 0.861.

Consider G13C G69U, for which the self-cleavage came to 0.217.

For the variant U14G C37U, the self-cleavage was 0.547.

In the case of G13C C46G, the self-cleavage is 0.164.

With G13C A35C, the self-cleavage worked out at 0.717.

Regarding G13A A23U, the self-cleavage was 0.734.

On to U14C A47U, for which the self-cleavage turned out to be 0.112.

Regarding U14C A47C, the self-cleavage was found to be 0.484.

Consider U14C U63C, for which the self-cleavage worked out at 0.392.

Consider U14C U63A, for which the self-cleavage is 0.

Turning to G13A A39U, the self-cleavage was 0.32.

In the case of G13A A39C, the self-cleavage turned out to be 0.446.

With G13U U20G, the self-cleavage stood at 0.815.

As to C12U G57U, the self-cleavage was 0.262.

G13U G54C: the self-cleavage came out at 0.293.

Turning to U14C G29C, the self-cleavage came to 0.17.

Regarding U14A U52C, the self-cleavage was found to be 0.788.

As for U14A U52G, the self-cleavage is 0.494.

In the case of G13C G19C, the self-cleavage was found to be 0.58.

On to G13C G19A, for which the self-cleavage turned out to be 0.753.

Take G13U C48A: the self-cleavage is 0.0958.

Take G13U C48U: the self-cleavage was 0.125.

Regarding G13A G40A, the self-cleavage was determined as 0.33.

For G13A U20A, the self-cleavage turned out to be 0.716.

On to G13A U20G, for which the self-cleavage was found to be 0.723.

G13C U60C: the self-cleavage was determined as 0.912.

Take U14A U33G: the self-cleavage stood at 0.207.

With U14A U33A, the self-cleavage worked out at 0.137.

As for U14A U33C, the self-cleavage was 0.153.

Take G13C G21C: the self-cleavage was found to be 0.587.

With G13C G57C, the self-cleavage is 0.125.

Turning to G13C G57A, the self-cleavage came out at 0.215.

In the case of U14C A22U, the self-cleavage came to 1.06.

For the variant U14C A22C, the self-cleavage was determined as 0.832.

Take U14G C48U: the self-cleavage is 0.0482.

Turning to U14G C38U, the self-cleavage is 0.345.

Regarding U14G C38A, the self-cleavage came out at 0.17.

Regarding U14A C37A, the self-cleavage is 0.378.

Consider U14A G40C, for which the self-cleavage came out at 0.187.

Consider U14A G40U, for which the self-cleavage is 0.127.

For the variant U14A G40A, the self-cleavage stood at 0.317.

On to G13U U67A, for which the self-cleavage was 0.257.

Take G13C U62C: the self-cleavage was 0.147.

For G13U A61C, the self-cleavage was found to be 0.173.

Consider G13U A61G, for which the self-cleavage came out at 0.147.

G13A A22U: the self-cleavage came to 0.748.

For the variant U14C G57U, the self-cleavage came out at 0.265.

As to U14A A59U, the self-cleavage was found to be 0.28.

As to U14G A24U, the self-cleavage was determined as 0.653.

Regarding G13A G51U, the self-cleavage was 0.821.

Consider G13A G51A, for which the self-cleavage stood at 0.87.

On to G13U A36U, for which the self-cleavage stood at 0.47.

As to G13C U67A, the self-cleavage came to 0.189.

Turning to G13C C18U, the self-cleavage was determined as 0.817.

On to G13C C18G, for which the self-cleavage came out at 0.807.

In the case of U14C A28C, the self-cleavage was 0.565.

On to U14C A31U, for which the self-cleavage is 0.0592.

Regarding U14C A31C, the self-cleavage is 0.0434.

Take U14G A41C: the self-cleavage is 0.698.

As for U14C A44G, the self-cleavage worked out at 0.155.

For the variant G13A G27U, the self-cleavage amounted to 0.257.

Regarding G13A A44C, the self-cleavage is 0.195.

As to G13A A44U, the self-cleavage came to 0.133.

Take U14A C18G: the self-cleavage was determined as 0.636.

As for U14A C18A, the self-cleavage worked out at 0.888.

Take G13U G57A: the self-cleavage is 0.123.

As to G13A U62A, the self-cleavage turned out to be 0.163.

Turning to U14A G21A, the self-cleavage is 0.936.

Turning to U14A G21U, the self-cleavage was determined as 0.795.

On to U14G C16A, for which the self-cleavage was 0.681.

For G13C U52A, the self-cleavage was 0.658.

Turning to U14C U60A, the self-cleavage came to 0.795.

For the variant G13A G19A, the self-cleavage was found to be 0.806.

In the case of U14C G32A, the self-cleavage was determined as 0.0498.

In the case of G13U C38A, the self-cleavage amounted to 0.188.

As to G13U C38U, the self-cleavage was determined as 0.231.

As for U14C U20A, the self-cleavage was found to be 0.774.

With U14C U20C, the self-cleavage was determined as 1.03.

As to U14C U20G, the self-cleavage is 1.09.

As to G13U G29A, the self-cleavage amounted to 0.157.

For the variant G13U G29C, the self-cleavage turned out to be 0.133.

Regarding U14C U55C, the self-cleavage was 0.483.

For U14C U55A, the self-cleavage turned out to be 0.271.

For U14C U55G, the self-cleavage turned out to be 0.352.

Turning to G13U A31C, the self-cleavage worked out at 0.133.

Consider U14C C48G, for which the self-cleavage was found to be 0.26.

Consider G13A A47C, for which the self-cleavage is 0.352.

With G13A A47G, the self-cleavage is 0.185.

Turning to U14A C50G, the self-cleavage was determined as 0.279.

On to U14C U58A, for which the self-cleavage came out at 0.763.

As for U14C U58C, the self-cleavage was 0.78.

In the case of G13A A43C, the self-cleavage stood at 0.119.

G13C C48A: the self-cleavage came out at 0.16.

In the case of G13U G17A, the self-cleavage is 0.69.

With U14C G19C, the self-cleavage was 0.79.

As to U14C G19U, the self-cleavage was determined as 0.88.

On to U14A C38U, for which the self-cleavage was 0.478.

As for U14C U52G, the self-cleavage turned out to be 0.512.

For U14C U52A, the self-cleavage stood at 1.03.

With U14G A39G, the self-cleavage came out at 0.227.

In the case of G13U G21U, the self-cleavage is 0.53.

Regarding U14A G29C, the self-cleavage stood at 0.168.

As for U14A G29U, the self-cleavage stood at 0.206.

In the case of G13C A41G, the self-cleavage was determined as 0.498.

With G13C A41C, the self-cleavage is 0.892.

In the case of G13C A41U, the self-cleavage stood at 0.819.

With U14G A71G, the self-cleavage stood at 0.883.

In the case of U14G A71C, the self-cleavage worked out at 1.11.

Take G13C G29C: the self-cleavage is 0.189.

Regarding U14C G69U, the self-cleavage is 0.3.

For the origin of these results see the RNAGym collection of RNA variant scans (doi:10.7554/elife.80360).
